The values that follow come from patent US20180155451A1 (published 2018).

One may read the Kd as the concentration at which binding is half-saturated. A low value points to a tighter complex.

In test [1] the target is T1, FcγRIIIa extracellular domain with C-terminal His tag (human, UniProt P08637 17-208).
T1 construct: extracellular domain; also called FcgRIIIa; CD16A
The test can be described thus: SPR (Biacore), antibody captured on antigen peptide chip, FcγR as analyte. The procedure: Specifically, GpH7-TA7 and GpH7-TA45 (SEQ ID NO: 32) resulting from the introduction of L234Y, G236W, and S298A into GpH7-A5 and GpH7-B3, respectively, were prepared according to the method described in Reference Example 1. […] These antibodies were compared for the FcγRIIIa binding according to the method described in Reference Example 2 (Table 10).
(§1) Analysis of interaction between objective antibody and the FcγR was carried out using Biacore T100 (GE Healthcare). HBS-EP+ (GE Healthcare) was used as the running buffer, and the measurement temperature was set to 25° C. Chips produced by immobilizing the antigen peptide by the amine coupling method to a Series S Sencor Chip CM5 (GE Healthcare), or alternatively, chips produced by allowing preliminarily biotinylated antigen peptides to interact with and immobilize onto a Series S Sensor Chip SA (certified) (GE Healthcare) were used. Antibodies of interest were captured onto an antigen peptide-immobilized chip, and allowed to interact to each FcγR diluted with running buffer. To regenerate and repeatedly use the chip, the antibodies captured on the chip were washed off by reacting 10 mM glycine-HCl, pH 1.5.
For orientation: In SPR one partner is held on a chip, and binding of the other changes the refractive index at the surface.

Test [2] has as its target T1, FcγRIIIa extracellular domain with …. The test can be described thus: SPR (Biacore), ratio of KD values for FcγRIIIa.
Text: GpH7-A57 (SEQ ID NO: 40) resulting from the introduction of all of S239D, A330L, and I332E into GpH7-A5; GpH7-B78 (SEQ ID NO: 41) resulting from the introduction of all of S239D, A330L, and I332E into GpH7-B3; GpH7-TA7 (SEQ ID NO: 31) resulting from the introduction of all of L234Y, G236W, and S298A into GpH7-A5; and GpH7-TA45 (SEQ ID NO: 32) resulting from the introduction of all of L234Y, G236W, and S298A into GpH7-B3. […] The prepared antibodies were compared for the FcγRIIIa-binding activity using, as an indicator, KD for FcγRIIIa that was determined according to the method described in Reference Example 2.
as §1

Test [3] shares this target. Put plainly: SPR (Biacore), antibody captured, FcγRIIIa as analyte, 1:1 Langmuir kinetic fit. The procedure:
The prepared antibodies were compared for the FcγRIIIa-binding activity using, as an indicator, KD for FcγRIIIa that was determined according to the method described in Reference Example 2.
as §1
The FcγR-binding activity of each antibody was assessed primarily using as an indicator the FcγR-binding activity and dissociation constant for FcγR.

Test [4] has the same target. The test can be described thus: SPR (Biacore), antibody captured on antigen peptide chip, FcγR as analyte. The procedure: GpH7-TA8 (SEQ ID NO: 33) and GpH7-B12 (SEQ ID NO: 12) resulting from the introduction of P329R into GpH7-TA7 and GpH7-B3, respectively, were prepared according to the method described in Reference Example 1.
as §1
The source holds these as a separate data set.

In test [5] the target is T2, FcgRIIb (human, UniProt P31994 43-217).
T2 construct: extracellular domain; Expressed in FreeStyle293 cells and purified; used as analyte in Biacore; also called FcγRIIb; CD32B; not shown: His tag attached to the C terminus
T2 sequence (looked up): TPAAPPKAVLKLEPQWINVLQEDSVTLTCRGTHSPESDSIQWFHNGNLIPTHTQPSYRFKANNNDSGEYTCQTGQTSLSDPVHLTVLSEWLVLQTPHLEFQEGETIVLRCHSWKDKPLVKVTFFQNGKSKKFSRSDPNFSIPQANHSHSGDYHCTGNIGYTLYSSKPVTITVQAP
Put plainly: SPR (Biacore), antibody captured on chip, FcgR extracellular domain as analyte.

Test [6] has as its target T3, FcgRIIIa F (human, UniProt P08637 17-208).
T3 construct: extracellular domain; also called FcγRIIIa F; not shown: His tag attached to the C terminus
The test is described as above.

In test [7] the target is T4, FcgRIIa H (human, UniProt P12318 34-217).
T4 construct: extracellular domain; also called FcγRIIa H; FcγRIIa type H; not shown: His tag attached to the C terminus
T4 sequence (looked up): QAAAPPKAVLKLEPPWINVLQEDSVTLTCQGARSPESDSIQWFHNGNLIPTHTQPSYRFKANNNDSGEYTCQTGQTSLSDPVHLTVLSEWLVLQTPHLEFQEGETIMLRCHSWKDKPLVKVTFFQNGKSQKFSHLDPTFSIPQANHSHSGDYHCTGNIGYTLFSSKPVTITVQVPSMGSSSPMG
The test is described as above.

For test [8], the target named is T5, FcgRIIIa V (human, UniProt P08637 17-208).
T5 construct: extracellular domain; also called FcγRIIIa V; not shown: His tag attached to the C terminus
T5 sequence (P08637 17-208 F176V limits assumed): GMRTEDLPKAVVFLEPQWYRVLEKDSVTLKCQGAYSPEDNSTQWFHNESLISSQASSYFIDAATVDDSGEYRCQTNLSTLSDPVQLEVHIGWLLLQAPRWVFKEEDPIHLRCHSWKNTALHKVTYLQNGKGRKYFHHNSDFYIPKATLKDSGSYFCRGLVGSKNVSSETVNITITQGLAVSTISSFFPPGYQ
The description is as above.

Test [9] deals with T6, FcgRIa (human, UniProt P12314 16-292).
T6 construct: extracellular domain; Expressed in FreeStyle293 cells and purified; used as analyte in Biacore; also called FcγRIa; FcγRI; not shown: His tag attached to the C terminus
T6 sequence (P12314 16-292): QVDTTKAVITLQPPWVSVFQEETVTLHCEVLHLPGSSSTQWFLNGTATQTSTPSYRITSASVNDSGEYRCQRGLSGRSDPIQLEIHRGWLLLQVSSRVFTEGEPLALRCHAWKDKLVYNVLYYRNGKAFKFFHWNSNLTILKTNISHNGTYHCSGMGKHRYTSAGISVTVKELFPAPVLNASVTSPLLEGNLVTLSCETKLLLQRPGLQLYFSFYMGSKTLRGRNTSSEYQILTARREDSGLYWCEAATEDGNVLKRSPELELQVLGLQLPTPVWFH
The description is as above.

Test [10] concerns the target T7, FcgRIIa R (human, UniProt P12318 34-217).
T7 construct: extracellular domain; also called FcγRIIa R; FcγRIIa type R; not shown: His tag attached to the C terminus
T7 sequence (looked up): T4 sequence (looked up) with H134R
Described as above.

Test [11] addresses T2, FcgRIIb. The description is as above. The source holds these as a separate data set.
Test [12] deals with T3, FcgRIIIa F. The description is as above. This is another data set of the same source.
In test [13] the target is T4, FcgRIIa H. The description is as above. This is another data set of the same source.
The target of test [14] is T5, FcgRIIIa V. The test is described as above. The source holds these as a separate data set.
The target of test [15] is T6, FcgRIa. The test is described as above. The source holds these as a separate data set.
In test [16] the target is T7, FcgRIIa R. Described as above. This is another data set of the same source.
Test [17] deals with T2, FcgRIIb. Described as above. This is another data set of the same source.
Test [18] has as its target T3, FcgRIIIa F. The description is as above. The source holds these as a separate data set.
Test [19] addresses T4, FcgRIIa H. Described as above. This is another data set of the same source.
The target in test [20] is T5, FcgRIIIa V. The description is as above. This is another data set of the same source.
Test [21] addresses T6, FcgRIa. Described as above. The source holds these as a separate data set.
Test [22] concerns the target T7, FcgRIIa R. The description is as above. This is another data set of the same source.

Positions count from the first letter of the chain named. Names may count otherwise. Like-named read-outs stand apart in the source and are kept apart here.

T1 sequence (P08637 17-208): as the sequence (P08637 17-208 F176V limits assumed) above, with V160F counted along it
T3 sequence (P08637 17-208): as the sequence (P08637 17-208 F176V limits assumed) above, with V160F counted along it

B1: GpH7-A5/GpH7-TA45/GpL16-k0 (antibody, human IgG1, kappa)
heavy 1: not shown
heavy 2: QVQLVQSGAEVKKPGASVTVSCKASGYTFTDYEMHWIRQPPGEGLEWIGAIDPKTGDTAYSESFQDRVTLTADKSTSTAYMELSSLTSEDTAVYYCTRFYSYTYWGQGTLVTVSSASTKGPSVFPLAPSSKSTSGGTAALGCLVKDYFPEPVTVSWNSGALTSGVHTFPAVLQSSGLYSLSSVVTVPSSSLGTQTYICNVNHKPSNTKVDKKVEPKSCDKTHTCPPCPAPEYLWGPSVFLFPPKPKDTLMISRTPEVTCVVVDVSHEDPEVKFNWYVDGVEVHNAKTKPREEQYNATYRVVSVLTVLHQDWLNGKEYKCKVSNKALPAPIEKTISKAKGQPREPQVYTLPPSRDELTKNQVSLTCLVKGFYPSDIAVEWESNGQPENNYKTTPPVLDSDGSFFLYSKLTVDKSRWQQGNVFSCSVMHEALHNHYTQESLSLSP
light: DIVMTQSPLSLPVTPGEPASISCQASESLVHSNRNTYLHWYLQKPGQSPQLLIYKVSNRFSGVPDRFSGSGSGTDFTLKISRVEAEDVGVYYCSQNTHVPPTFGQGTKVEIERTVAAPSVFIFPPSDEQLKSGTASVVCLLNNFYPREAKVQWKVDNALQSGNSQESVTEQDSKDSTYSLSSTLTLSKADYEKHKVYACEVTHQGLSSPVTKSFNRGEC
notes: Heterodimerized anti-glypican-3 IgG1 variant
Consider B1, for which, in test [1], the “FcγR BINDING ACTIVITY (relative FcγRIIIa binding)” value was 225 relative, GpH7-A5/GpH7-B3/GpL16-k0 = 100.

B2: GpH7-TA7/GpH7-TA45/GpL16-k0 (antibody, human IgG1, kappa)
heavy 1: B1 heavy 2 with D354K, H433R, E437K
heavy 2: B1 heavy 2
light: B1 light
notes: the chains differ only in D356K/H435R against K439E
On to B2, for which, in test [1], the “FcγR BINDING ACTIVITY (relative FcγRIIIa binding)” value is 48 relative, GpH7-A5/GpH7-B3/GpL16-k0 = 100. In [2], the “KD ratio 1 (KD of GpH7-G1d/GpL16-k0 divided by KD of the antibody)” value was found to be 0.37 fold and the “KD ratio 2 (KD of GpH7-A5/GpH7-B3/GpL16-k0 divided by KD of the antibody)” value turned out to be 0.49 fold. The molecule also yielded a Kd in test [3] of 3300 nM.

B3: GpH7-TA7/GpH7-B12/GpL16-k0 (antibody, human IgG1, kappa)
heavy 1: B1 heavy 2 with D354K, H433R, E437K
heavy 2: not shown
light: B1 light
notes: as for B1
Regarding B3, in [4], the “FcγRIIIa BINDING ACTIVITY (relative)” value is 11 relative, GpH7-A5/GpH7-B3/GpL16-k0 = 100.

B4: H240-Kn032/H240-Hl032/L73-k0 (antibody, human IgG1, kappa)
heavy 1: QDQLVQSGAEVKKPGASVKVSCKASGFNIKDTYIQWVRQAPGQGLEWMGRIDPLRKQTKYREKFEGRVTITADTSTNTAYMELSSLRSEDTAVYYCVRSGREFDYWGQGTLVTVSSASTKGPSVFPLAPSSKSTSGGTAALGCLVKDYFPEPVTVSWNSGALTSGVHTFPAVLQSSGLYSLSSVVTVPSSSLGTQTYICNVNHKPSNTKVDKKVEPKSCDKTHTCPPCPAPELLGGPDVFLFPPKPKDTLMISRTPEVTCVVVDVSHEDPEVKFNWYVDGVEVHNAKTKPREEQYNSTYRVVSVLTVLHQDWLNGKEYKCKVSNKALPLPEEKTISKAKGQPREPQVCTLPPSRDELTKNQVSLWCLVKGFYPSDIAVEWESNGQPENNYKTTPPVLDSDGSFFLYSKLTVDKSRWQQGNVFSCSVMHEALHNHYTQKSLSLSP
heavy 2: B4 heavy 1 with C348Y, D355C, W365S, L367A, Y406V
light: DIQMTQSPSSLSASVGDRVTITCRASQDIHKYIAWYQQKPGQAPRLLIQYTSTLQPGVPSRFSGSGSGTDYTFTISSLQPEDIATYYCLQYEQLRTFGGGTKVEIKRTVAAPSVFIFPPSDEQLKSGTASVVCLLNNFYPREAKVQWKVDNALQSGNSQESVTEQDSKDSTYSLSSTLTLSKADYEKHKVYACEVTHQGLSSPVTKSFNRGEC
notes: Anti-EREG IgG1 called homodimerized: S239D/A330L/I332E in both H chains, on the knobs-into-holes pair Kn033/Hl033
As to B4, the Kd with FcgRIIb [5] came out at 630 nM; with FcgRIIIa F [6] it was 9.1 nM; with FcgRIIa H [7], 690 nM; with FcgRIIIa V [8], 3.1 nM; with FcgRIa [9], 0.073 nM; with FcgRIIa R [10], 340 nM. In addition, the Kd was 630 nM with FcgRIIb [11]; 9.1 nM with FcgRIIIa F [12]; 690 nM with FcgRIIa H [13]; 3.1 nM with FcgRIIIa V [14]; 0.073 nM with FcgRIa [15]; 340 nM with FcgRIIa R [16]. Also, the Kd came to 630 nM with FcgRIIb [17]; 9.1 nM in the test with FcgRIIIa F [18]; 690 nM in the test with FcgRIIa H [19]; 3.1 nM with FcgRIIIa V [20]; 0.073 nM in the test with FcgRIa [21]; 340 nM with FcgRIIa R [22].
